Measured values: patent US20120316071A1 (published 2012)
Positions count from the first letter of the chain named. Names may count otherwise.

B1: Fab VH1-46_IGHD6-6*01_IGHJ1*01 S102A/S103P/S104F/H111F & L6_IGKJ1*01 (Fab, V domains shown)
VH: QVQLVQSGAEVKKPGASVKVSCKASGYTFTSYYMHWVRQAPGQGLEWMGIINPSGGSTSYAQKFQGRVTMTRDTSTSTVYMELSSLRSEDTAVYYCAREEYAPFSAEYFQFWGQGTLVTVSS
VL: not shown
notes: Tested as a Fab made in E. coli; also called H:APFF & L:wt; APFF
B2: Fab VH1-46_IGHD6-6*01_IGHJ1*01 S102A/S103P/S104F/H111F & L6_IGKJ1*01 S30D (Fab, V domains shown)
VH: B1 VH
VL: EIVLTQSPATLSLSPGERATLSCRASQSVDSYLAWYQQKPGQAPRLLIYDASNRATGIPARFSGSGSGTDFTLTISSLEPEDFAVYYCQQRSNWPPWTFGQGTKVEIKR
notes: Tested as a Fab; also called APFF & S30D
B3: Fab VH1-46_IGHD6-6*01_IGHJ1*01 S102A/S103P/S104F/H111F & L6_IGKJ1*01 S31H (Fab, V domains shown)
VH: B1 VH
VL: B2 VL with D30S, S31H
notes: Tested as a Fab; also called APFF & S31H
B4: Fab VH1-46_IGHD6-6*01_IGHJ1*01 S102A/S103P/S104F/H111F & L6_IGKJ1*01 S28H (Fab, V domains shown)
VH: B1 VH
VL: B2 VL with S28H, D30S
notes: Tested as a Fab; also called APFF & S28H
B5: Fab VH1-46_IGHD6-6*01_IGHJ1*01 S102A/S103P/S104F/H111F & L6_IGKJ1*01 S28N (Fab, V domains shown)
VH: B1 VH
VL: B2 VL with S28N, D30S
notes: Tested as a Fab; also called APFF & S28N
B6: Fab VH1-46_IGHD6-6*01_IGHJ1*01 S102A/S103P/S104F/H111F/G56A & L6_IGKJ1*01 S28N/S30D/S31H (Fab, V domains shown)
VH: B1 VH with G56A
VL: B2 VL with S28N, S31H
notes: Tested as a Fab; also called H:APFF G56A & L:NDH
B7: Fab VH1-46_IGHD6-6*01_IGHJ1*01 S102A/S103P/S104F/H111F/G56A & L6_IGKJ1*01 (Fab, V domains shown)
VH: B1 VH with G56A
VL: not shown
notes: Tested as a Fab; also called APFF G56A & Parent
B8: Fab VH1-46_IGHD6-6*01_IGHJ1*01 S102A/S103P/S104F/H111F/S54A & L6_IGKJ1*01 S28N/S30D/S31H (Fab, V domains shown)
VH: B1 VH with S54A
VL: B2 VL with S28N, S31H
notes: Tested as a Fab; also called H:APFF S54A & L:NDH
B9: Fab VH1-46_IGHD6-6*01_IGHJ1*01 S102A/S103P/S104F/H111F & L6_IGKJ1*01 S28N/S30D/S31H (Fab, V domains shown)
VH: B1 VH
VL: B2 VL with S28N, S31H
notes: Tested as a Fab; also called H:APFF & L:NDH; APFF-NDH
B10: Fab VH1-46_IGHD6-6*01_IGHJ1*01 S102A/S103P/S104F/H111F (APFF) & L6_IGKJ1*01 S76G (Fab, V domains shown)
VH: B1 VH
VL: B2 VL with D30S, S76G
notes: Fab made in E. coli: VH in plasmid A (CH1, His6 and Flag tags), VL in plasmid C (kappa CL); also called H:APFF & L6_IGKJ1*01 S76G
B11: Fab VH1-46_IGHD6-6*01_IGHJ1*01 S102A/S103P/S104F/H111F (APFF) & L6_IGKJ1*01 (Fab, V domains shown)
VH: B1 VH
VL: not shown
notes: Fab made in E. coli: VH in plasmid A (CH1, His6 and Flag tags), VL in plasmid C (kappa CL); also called H:APFF & L:wt; APFF mutant

target: T1, Recombinant Human DLL4 (delta-like protein 4) (human, UniProt Q9NR61 27-524); test: ELISA, DLL4 coated on plate, Fab at 50 nM
T1 construct: Bought recombinant human DLL4 (R&D Systems Cat#1506-D4/CF); also called rHuman DLL4; Delta-like 4

Row | Binder | ELISA signal
1 | B1 | 0.06
2 | B2 | 0.06
3 | B3 | 0.05
4 | B4 | 0.05
5 | B5 | 0.07

target: T1, Recombinant Human DLL4 (delta-like …); test: ELISA, DLL4 coated on plate, Fab at 50 nM; remark: another data set of the same source

Row | Binder | ELISA signal
6 | B1 | 0.06
7 | B6 | 0.366
8 | B7 | 0.301
9 | B8 | 0.154
10 | B9 | 0.202

target: T1, Recombinant Human DLL4 (delta-like …); test: ELISA, DLL4 coated on plate, Fab at 75 nM

Row | Binder | ELISA signal
11 | B1 | 0.072
12 | B6 | 0.543
13 | B7 | 0.399
14 | B8 | 0.212
15 | B9 | 0.268

target: T1, Recombinant Human DLL4 (delta-like …); test: ELISA, DLL4 coated on plate, Fab at 100 nM

Row | Binder | ELISA signal
16 | B1 | 0.07
17 | B2 | 0.09
18 | B3 | 0.09
19 | B4 | 0.09
20 | B5 | 0.13

target: T1, Recombinant Human DLL4 (delta-like …); test: ELISA, DLL4 coated on plate, Fab at 200 nM

Row | Binder | ELISA signal
21 | B1 | 0.1
22 | B2 | 0.11
23 | B3 | 0.11
24 | B4 | 0.14
25 | B5 | 0.17

target: T1, Recombinant Human DLL4 (delta-like …); test: ELISA, DLL4 coated on plate, Fab at 400 nM

Row | Binder | ELISA signal
26 | B1 | 0.13
27 | B2 | 0.13
28 | B3 | 0.2
29 | B4 | 0.13
30 | B5 | 0.19

target: T1, Recombinant Human DLL4 (delta-like …); test: ELISA, DLL4 coated on plate, Fab at 100 nM; remark: another data set of the same source

Row | Binder | ELISA signal
31 | B1 | 0.072
32 | B6 | 0.453
33 | B7 | 0.338
34 | B8 | 0.213
35 | B9 | 0.259

target: T1, Recombinant Human DLL4 (delta-like …); test: ELISA, DLL4 coated on plate, Fab at 25 nM (first 25 nM row)

Row | Binder | ELISA signal
36 | B1 | 0.02
37 | B2 | 0.03
38 | B3 | 0.03
39 | B4 | 0.03
40 | B5 | 0.04

target: T1, Recombinant Human DLL4 (delta-like …); test: ELISA, DLL4 coated on plate, Fab at 25 nM (second 25 nM row)

Row | Binder | ELISA signal
41 | B1 | 0.03
42 | B2 | 0.03
43 | B3 | 0.03
44 | B4 | 0.03
45 | B5 | 0.05

target: T1, Recombinant Human DLL4 (delta-like …); test: ELISA, DLL4 coated on plate, Fab at 0 nM (no-Fab background)

Row | Binder | ELISA signal
46 | B1 | 0.006
47 | B6 | 0.002
48 | B7 | 0.002
49 | B8 | 0
50 | B9 | 0.002

target: T2, Recombinant Human DLL4 (delta-like protein 4) (human, UniProt Q9NR61 27-524); test: ECL (Meso Scale Discovery) binding assay on immobilised DLL4, Fab 10 nM
T2 construct: also called rHuman DLL4

Row | Binder | Signal [10 nM Fab]
51 | B10 | 13400
52 | B11 | 13500

target: T1, Recombinant Human DLL4 (delta-like …); test: ELISA, DLL4 coated on plate, Fab at 0 nM (no-Fab background, first 0 row)

Row | Binder | ELISA signal
53 | B1 | 0
54 | B2 | 0
55 | B3 | 0
56 | B4 | 0.01
57 | B5 | 0

target: T1, Recombinant Human DLL4 (delta-like …); test: ELISA, DLL4 coated on plate, Fab at 0 nM (no-Fab background, second 0 row)

Row | Binder | ELISA signal
58 | B1 | 0
59 | B2 | 0.01
60 | B3 | 0
61 | B4 | 0
62 | B5 | 0
